{"source": "patent US20240368281A1", "about": "(INNATE PHARMA, published 2024)", "binders": {"B1": {"name": "humZ270VL1/VH1 (antibody, human IgG4 S228P, kappa, V domains shown)", "VH": "QVQLVQSGAEVKKPGASVKVSCKASGYTFTSYWMNWVRQAPGQGLEWMGRIDPYDSETHYAQKLQGRVTMTTDTSTSTAYMELRSLRSDDTAVYYCARGGYDFDVGTLYWFFDVWGQGTTVTVSS", "VL": "DIQMTQSPSSLSASVGDRVTITCRASENIYSYLAWYQQKPGKAPKLLIYNAKTLAEGVPSRFSGSGSGTDFTLTISSLQPEDFATYYCQHHYGTPRTFGGGTKVEIKR", "notes": "also called humanized Z270 VH1; humZ270 VH1"}}, "key": {"[1]": {"target": "T1, single-chain NKG2A-CD94-mFc construct (human, UniProt Q13241 32-179, limits assumed)", "T1 construct": "The order here follows the printed name only; also called recombinant NKG2A; not shown: mouse Fc (mFc)", "T1 sequence (Q13241 other isoform, or with tags, fused parts or gaps limits assumed)": "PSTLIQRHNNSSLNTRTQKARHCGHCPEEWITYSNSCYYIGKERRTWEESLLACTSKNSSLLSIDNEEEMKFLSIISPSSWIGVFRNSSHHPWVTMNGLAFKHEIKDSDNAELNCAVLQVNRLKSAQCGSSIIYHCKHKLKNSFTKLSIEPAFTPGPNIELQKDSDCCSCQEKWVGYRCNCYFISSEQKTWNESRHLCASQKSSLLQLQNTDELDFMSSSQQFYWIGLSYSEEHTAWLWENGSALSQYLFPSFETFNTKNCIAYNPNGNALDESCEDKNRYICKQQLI", "test": "SPR, Biacore T100; antigen amine-coupled to a CM5 chip, antibody injected at 0.157-2.5 nM", "procedure": "Heavy chain frameworks included “VH1” based on VH1_18/JH6; “VH5” based on VH5_a; “VH6” based on VH5_51; “VH7” based on VH1_f; and “VH8” based on VH1_46, all with a JH6 J-segment. The antigen-binding properties were analyzed on a Biacore T100 (Biacore AB, Uppsala, Sweden). The antigen was in the form of a single-chain NKG2A-CD94-mFc construct was covalently immobilized on the sensor CM5 chip (Biacore AB, Uppsala, Sweden) via amine groups using 1-ethyl-3-(3-dimethylaminopropyl) carbodiimide hydrochloride (EDC) and N-hydroxysuccinimide (NHS). The immobilization level was targeted at 300 RU. Z270 antibody variants were diluted to a concentration series (0.157, 0.313, 0.625, 1.25, 2.5 nM) in the running buffer HBS-EP (10 mM HEPES pH 7.4, 150 mM NaCl, 3 mM EDTA, 0.005% (v/v) Tween-20). All the samples were then injected over the immobilized antigen for 2 min at the flow rate of 40 ul/min. Subsequently, the running buffer was injected for 3 min at 40 ul/min for antibody dissociation analysis. After each run, the regeneration buffer (10 mM NaOH, 500 mM NaCl) was injected (30 seconds, 10 ul/min) to completely strip the remaining antibodies off the antigen. Data were evaluated with Biacore T100 evaluation software."}, "[2]": {"target": "T2, CD94/NKG2A on the cell surface (human, UniProt Q13241 1-179, limits assumed)", "T2 sequence (chain, as listed by the source limits assumed, chain 1 of 2)": "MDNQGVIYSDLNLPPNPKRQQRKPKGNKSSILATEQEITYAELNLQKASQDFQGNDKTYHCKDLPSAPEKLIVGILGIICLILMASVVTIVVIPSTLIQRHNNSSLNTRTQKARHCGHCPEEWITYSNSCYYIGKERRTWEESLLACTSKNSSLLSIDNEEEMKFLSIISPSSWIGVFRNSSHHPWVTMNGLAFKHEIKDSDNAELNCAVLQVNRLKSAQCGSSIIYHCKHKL", "T2 sequence (Q13241 whole entry, chain 2 of 2)": "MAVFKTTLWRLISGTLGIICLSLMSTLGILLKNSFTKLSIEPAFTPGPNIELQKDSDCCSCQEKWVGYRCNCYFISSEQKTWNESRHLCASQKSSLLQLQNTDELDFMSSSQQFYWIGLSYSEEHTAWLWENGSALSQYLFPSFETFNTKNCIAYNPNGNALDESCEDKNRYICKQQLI", "test": "cell-based or functional assay"}, "[3]": {"target": "T2, CD94/NKG2A on the cell surface", "T2 sequence (chain, as listed by the source limits assumed, chain 1 of 2)": "as the sequence (chain, as listed by the source limits assumed, chain 1 of 2) above", "T2 sequence (Q13241 whole entry, chain 2 of 2, the tested form may be a part)": "as the sequence (Q13241 whole entry, chain 2 of 2) above", "test": "flow cytometry (MESF), titration in human whole blood, gated on NKG2A+ lymphocytes", "source_text": "The affinity and total number of receptors may impact both pharmacokinetics (PK) and pharmacodynamics (PD) of the mAb in humans. […] Human whole blood was collected from each donor and processed immediately."}, "[4]": {"target": "T2, CD94/NKG2A on the cell surface", "test": "flow cytometry, titration on purified human NK cells; four-parameter fit, median of 5 donors", "procedure": "Purified NK cells were prepared from frozen PBMC: Human NK purification with Stem Sep system, and cultured O/N in complete medium supplemented with 10 IU/ml recombinant IL-2. PBMC were prepared from collected blood. Blood was qualified for transfusion, donors were thus anonymous and supposedly healthy. PBMC were prepared, aliquoted and stored in nitrogen tanks prior to the study.\nCalculations of Kd for receptor saturation and EC₅₀ for CD107 mobilization were performed in GraphPad Prism software using a non-linear regression fit with four parameters."}}}
{"binder": "B1", "values": [{"measurement": "Kd", "setting": "[1]", "value": 0.0665, "unit": "nM"}, {"measurement": "koff", "setting": "[1]", "value": 0.000498, "unit": "s⁻¹"}, {"measurement": "kon", "setting": "[1]", "value": "7.49e+06", "unit": "M⁻¹ s⁻¹"}, {"measurement": "EC50 concentration in the CD107 mobilization assay (purified NK cells against autologous SEB blasts)", "setting": "[2]", "value": "~400", "unit": "ng/ml"}, {"measurement": "EC50 for CD107 mobilization on K562-HLA-E transfectants", "setting": "[2]", "value": 4100, "unit": "ng/mL"}, {"measurement": "median EC50 for CD107 mobilization (autologous SEB blasts)", "setting": "[2]", "value": 0.4, "unit": "µg/ml"}, {"measurement": "EC50", "setting": "[3]", "value": "~4", "unit": "ng/mL"}, {"measurement": "KD for full receptor occupancy (the EC100)", "setting": "[3]", "value": "~100", "unit": "ng/mL"}, {"measurement": "Kd", "setting": "[3]", "value": "~4", "unit": "ng/mL"}, {"measurement": "Kd", "setting": "[4]", "value": 5, "unit": "ng/mL"}]}
